Target: human CD40 on cells (human) (UniProt P25942)
Experiment: FACS, inhibition of human CD40L-his binding to CHO-K1/hCD40 cells

Sequence of human CD40 on cells (human) (P25942 21-277): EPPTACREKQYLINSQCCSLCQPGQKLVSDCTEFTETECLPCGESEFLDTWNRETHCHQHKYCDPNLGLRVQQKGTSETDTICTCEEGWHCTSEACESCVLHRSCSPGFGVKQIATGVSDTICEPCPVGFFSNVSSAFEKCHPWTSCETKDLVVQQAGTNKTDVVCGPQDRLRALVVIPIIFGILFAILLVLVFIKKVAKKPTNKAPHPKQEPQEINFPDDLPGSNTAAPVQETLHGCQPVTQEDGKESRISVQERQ

Maximum inhibition rate (%): 2.3%
Substance: hIgG1 (antibody)

Source: patent publication US20250215100A1
